Entries after “also recorded” stand apart in the source; their conditions may differ. Like-named read-outs stand apart in the source and are kept apart here. Square brackets hold non-standard residues; d marks the D form. Peptide text beside a SMILES is read from it. pS = N[C@@H](COP(=O)(O)O)C(=O)O
Tests used:
[1] = biological target: T1, pΔPH-PKB-ΔC (PKBβ residues 146 to 460, phosphorylated in vitro on Thr-309) (Homo sapiens, UniProt P31751); assay: Protein kinase B assay with Crosstide as substrate, peptide stimulation of pΔPH-PKB-ΔC; format: biochemical; conditions: for fold lower affinity than PIFtide, from estimated EC50: PKB not phosphorylated on Ser 474; for stimulation of pΔPH-PKB-ΔC activity (in words): PIFtide peptides at 210-250 μM, PKB HM-peptide up to 1.2 mM
T1 construct: pΔPH-PKB-ΔC (residues 146 to 460, phosphorylated in vitro on Thr-309); 6xHis (N, cleaved yes); made in house; host or cells: Sf9 insect cells / baculovirus (pFastBacHTa)
T1 sequence (P31751 146-460, stated change not applied): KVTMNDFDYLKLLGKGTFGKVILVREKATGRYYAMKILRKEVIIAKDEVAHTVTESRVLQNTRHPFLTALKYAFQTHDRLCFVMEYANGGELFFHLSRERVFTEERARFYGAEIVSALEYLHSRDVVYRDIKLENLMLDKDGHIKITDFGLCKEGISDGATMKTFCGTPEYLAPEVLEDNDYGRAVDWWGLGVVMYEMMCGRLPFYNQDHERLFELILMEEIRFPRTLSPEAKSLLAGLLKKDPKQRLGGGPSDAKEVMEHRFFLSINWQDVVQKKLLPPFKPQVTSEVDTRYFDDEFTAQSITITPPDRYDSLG
Experimental: To test the model that Ser 474 phosphorylation promotes an interaction between the hydrophobic motif and the induced hydrophobic groove of the N-terminal lobe, thereby causing an allosteric activation of the kinase, the ability of peptides modelled on the hydrophobic motif of PKB to activate the enzyme via an intermolecular association with the N-terminal lobe was assessed.
(§1) PKB was assayed essentially as described by Andjelkovic et al. (1999) with 30 μM Crosstide (GRPRTSSAEG) as substrate except the protein kinase A inhibitor peptide was not added to the reactions. For peptide stimulation experiments the various peptides were dissolved in water and added to the kinase assay mix prior to adding the PKB protein. Peptides were synthesized by Franz Fischer at the FMI or purchased from Neosystem, Strasburg, France.
(§2) All experiments were performed in either duplicate or triplicate.

[2] = biological target: T2, ΔPH-PKB phosphorylated on both Thr 309 and Ser 474 (Homo sapiens, UniProt P31751); assay: Protein kinase B assay with Crosstide, peptide stimulation of doubly phosphorylated ΔPH-PKB; format: biochemical
T2 construct: Purification of ΔPH-PKBβ-ΔC (Residues 146-460) and ΔPH-PKBβ (Residues 146-481); 6xHis (N, cleaved yes); made in house; host or cells: Sf9 insect cells / baculovirus (pFastBacHTa)
T2 sequence (P31751 146-481, stated change not applied): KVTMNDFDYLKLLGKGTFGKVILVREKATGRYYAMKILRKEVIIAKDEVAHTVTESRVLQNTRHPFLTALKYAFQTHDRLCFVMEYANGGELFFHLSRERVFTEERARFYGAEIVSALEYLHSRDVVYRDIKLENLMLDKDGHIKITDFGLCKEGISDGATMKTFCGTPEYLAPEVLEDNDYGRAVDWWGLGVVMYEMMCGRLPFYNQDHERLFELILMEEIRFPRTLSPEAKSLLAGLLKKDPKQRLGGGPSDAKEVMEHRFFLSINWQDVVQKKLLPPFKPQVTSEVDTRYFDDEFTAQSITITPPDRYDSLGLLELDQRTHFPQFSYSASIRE
Experimental: as §1, §2

[3] = biological target: T3, His tagged pΔPH-PKB-ΔC wild type (Homo sapiens, UniProt P31751); assay: PIFtide responsiveness of His tagged wild type pΔPH-PKB-ΔC expressed in HEK cells; format: biochemical; conditions: incomplete Thr 309 phosphorylation
T3 construct: pΔPH-PKB-ΔC (residues 146 to 460, phosphorylated in vitro on Thr-309); made in house; host or cells: HEK cells (transient expression), purified on Ni-NTA agarose
T3 sequence (P31751 146-460, stated change not applied): as the sequence (P31751 146-460, stated change not applied) above
Experimental: To test the notion that a hydrophobic groove is induced in PKB to engage the hydrophobic motif, and activate the kinase, a series of His tagged pΔPH-PKB-ΔC hydrophobic groove mutants were prepared and their responsiveness to PIFtide assessed. PKB mutants were transiently expressed in HEK cells, phosphorylated in vitro with PDK1, and purified using Ni-NTA agarose. […] Wild type PKB prepared using this procedure was stimulated ˜5-fold by 130 μM PIFtide (FIG. 6B).
as §1

pΔPH-PKB-ΔC = biological target: T4, pΔPH-PKB-ΔC (Homo sapiens, UniProt P31751); assay: Isothermal titration calorimetry, peptide binding to pΔPH-PKB-ΔC
T4 construct: pΔPH-PKB-ΔC (residues 146 to 460, phosphorylated in vitro on Thr-309); 6xHis (N, cleaved yes); made in house; host or cells: Sf9 insect cells / baculovirus (pFastBacHTa)
T4 sequence (P31751 146-460, stated change not applied): as above
Experimental: (C) Isothermal titration calorimetry measurements of the binding of PIFtide to pΔPH-PKB-ΔC (left) and ΔPH-PKB-ΔC (right). Upper panel, raw data of the titration of PIFtide into pΔPH-PKB-ΔC. Lower panel, integrated heats of injections, corrected for the heat of dilution, with the solid line corresponding to the best fit of the data using the MicroCal software.
Using isothermal titration calorimetry, the affinity between PIFtide and both pΔPH-PKB-ΔC and ΔPH-PKB-ΔC was determined (FIG. 5C). […] The observed large decrease in entropy is […] typical of protein-peptide interactions, for example SH2-domain-phosphotyrosine peptide complexes (Ladbury et al., 1996), and is consistent with an ordering of both the protein, presumably the αB- and αC-helices of the N-lobe, and peptide on complex formation.

[4] = biological target: His tagged pΔPH-PKB-ΔC hydrophobic groove mutant V194A-V198A (human) (UniProt P31751); assay: cell-based or functional assay
Chain of His tagged pΔPH-PKB-ΔC hydrophobic groove mutant V194A-V198A (human) (P31751 146-460 V194A/V198A limits assumed): as the sequence (P31751 146-460, stated change not applied) above, with V49A, V53A counted along it

[5] = biological target: His tagged pΔPH-PKB-ΔC, wild type, transiently expressed in HEK cells (human) (UniProt P31751); assay: cell-based or functional assay
Chain of His tagged pΔPH-PKB-ΔC, wild type, transiently expressed in HEK cells (human) (P31751 146-460, stated change not applied): as the sequence (P31751 146-460, stated change not applied) above

[6] = biological target: pΔPH-PKBβ-ΔC (human PKBβ residues 146 to 460, phosphorylated in vitro on Thr-309) (human) (UniProt P31751); assay: cell-based or functional assay
Chain of pΔPH-PKBβ-ΔC (human PKBβ residues 146 to 460, phosphorylated in vitro on Thr-309) (human) (P31751 146-460, stated change not applied): as above

[7] = biological target: ΔPH-PKB (human PKBβ residues 146-481) phosphorylated on Thr 309 (human) (UniProt P31751); assay: cell-based or functional assay
[8] = biological target: ΔPH-PKBβ-ΔC (human PKBβ residues 146 to 460, not phosphorylated on Thr-309) (human) (UniProt P31751); assay: isothermal titration calorimetry
Chain of ΔPH-PKBβ-ΔC (human PKBβ residues 146 to 460, not phosphorylated on Thr-309) (human) (P31751 146-460, stated change not applied): as above

[9] = biological target: pΔPH-PKBβ-ΔC (human PKBβ residues 146 to 460, phosphorylated in vitro on Thr-309) (human) (UniProt P31751); assay: cell-based or functional assay; remark: listed apart in the source
[10] = assuming activation at saturating peptide similar to that induced by PIFtide, read-out: EC50 estimated from FIG. 5A

CC[C@H](C)[C@H](NC(=O)[C@H](CO)NC(=O)[C@H](C)NC(=O)[C@H](CO)NC(=O)[C@H](Cc1ccc(O)cc1)NC(=O)[C@H](COP(=O)(O)O)NC(=O)[C@H](Cc1ccccc1)NC(=O)[C@H](CCC(N)=O)NC(=O)[C@@H]1CCCN1C(=O)[C@H](Cc1ccccc1)NC(=O)[C@H](Cc1c[nH]cn1)NC(=O)[C@@H](NC(=O)[C@H](CCCNC(=N)N)NC(=O)[C@H](CCC(N)=O)NC(=O)[C@H](CC(=O)O)NC(=O)[C@H](CC(C)C)NC(=O)[C@H](CCC(=O)O)NC(=O)[C@H](CC(C)C)NC(=O)[C@H](CC(C)C)NC(=O)CN)[C@@H](C)O)C(=O)N[C@@H](CCCNC(=N)N)C(=O)N[C@@H](CCC(=O)O)C(=O)O [HM-P, GLLELDQRTHFPQFpSYSASIRB] (H-GLLELDQRTHFPQF[pS]YSASIRE-OH; N-terminus and C-terminus assumed)
fold lower affinity than PIFtide, from estimated EC50 [1]: ~1000 fold
EC50 [1, 10]: 2300 µM
activation of ΔPH-PKB phosphorylated on both Thr 309 and Ser 474 (in words) [2]: did not further activate
activation of wild type PKB by PKB HM-peptide (in words) [3]: did not elicit measurable activation

CC[C@H](C)[C@H](NC(=O)[C@H](Cc1ccc(O)cc1)NC(=O)[C@H](C)NC(=O)[C@H](Cc1ccccc1)NC(=O)[C@H](CC(=O)O)NC(=O)[C@H](CCCNC(=N)N)NC(=O)[C@H](Cc1ccccc1)NC(=O)[C@H](CCSC)NC(=O)[C@H](CCC(=O)O)NC(=O)[C@H](CCC(N)=O)NC(=O)[C@H](CCC(=O)O)NC(=O)[C@H](CCC(=O)O)NC(=O)[C@H](CCC(=O)O)NC(=O)[C@H](CO)NC(=O)[C@H](CC(C)C)NC(=O)[C@@H](NC(=O)[C@H](CCCNC(=N)N)NC(=O)[C@@H]1CCCN1C(=O)[C@H](CCC(=O)O)NC(=O)[C@@H](N)CCCNC(=N)N)[C@@H](C)CC)C(=O)N[C@@H](C)C(=O)N[C@@H](CC(=O)O)C(=O)N[C@@H](Cc1c[nH]c2ccccc12)C(=O)O [PIFtide(D->A)] (H-REPRILSEEEQEMFRDFAYIADW-OH; N-terminus and C-terminus assumed)
fold lower affinity than PIFtide, from EC50 [1]: 10 fold
EC50 ([1]; Crosstide substrate, value of PIFtide(D->A) called estimated, read-out: EC50 for activation of pΔPH-PKB-ΔC): 30 µM
maximal activation of pΔPH-PKB-ΔC compared with wild type PIFtide (in words) ([1]; saturating / high concentrations of the mutant peptide): identical to that of the wild type peptide; also recorded: could activate PKB maximally
fold lower affinity relative to PIFtide, ITC (pΔPH-PKB-ΔC): approximately 25 fold

CC[C@H](C)[C@H](NC(=O)[C@H](CO)NC(=O)[C@H](C)NC(=O)[C@H](CO)NC(=O)[C@H](Cc1ccc(O)cc1)NC(=O)[C@H](CC(=O)O)NC(=O)[C@H](Cc1ccccc1)NC(=O)[C@H](CCC(N)=O)NC(=O)[C@@H]1CCCN1C(=O)[C@H](Cc1ccccc1)NC(=O)[C@H](Cc1c[nH]cn1)NC(=O)[C@@H](NC(=O)[C@H](CCCNC(=N)N)NC(=O)[C@H](CCC(N)=O)NC(=O)[C@H](CC(=O)O)NC(=O)[C@H](CC(C)C)NC(=O)[C@H](CCC(=O)O)NC(=O)[C@H](CC(C)C)NC(=O)[C@H](CC(C)C)NC(=O)CN)[C@@H](C)O)C(=O)N[C@@H](CCCNC(=N)N)C(=O)N[C@@H](CCC(=O)O)C(=O)O [PKB HM-D] (H-GLLELDQRTHFPQFDYSASIRE-OH; N-terminus and C-terminus assumed)
fold lower affinity than PIFtide, from estimated EC50 [1]: ~1000 fold
EC50 [1, 10]: 3600 µM

GLLELDQRTHFPQFSYSASIRE [PKB HM-S]
stimulation of pΔPH-PKB-ΔC activity (in words) ([1]; Crosstide substrate): did not stimulate

MFRDFDYIADW [PIFtide1, 11-residue peptide encompassing the six-residue hydrophobic motif of PIFtide]
stimulation of pΔPH-PKB-ΔC activity (in words) ([1]; Crosstide substrate): essentially recapitulates the activation

PIFtide (synthetic peptide encompassing the PRK2 hydrophobic motif)
PIFtide activation relative to wild type (% of wild type) [4]: 25
stimulation of PKB kinase activity by 130 µM PIFtide [5]: 5 fold
EC50 of activation of kinase activity [6]: 3 µM
activation of PKB kinase activity [6]: 15 fold
peptide concentration giving maximum and saturable activation [6]: 20 µM
specific activity of pΔPH-PKB-ΔC maximally activated by PIFtide [6]: 350 nmol/min/mg
activation of PKB kinase activity [7]: 5 fold
TΔS [8]: -9.2 kcal/mol
ΔH [8]: -16 kcal/mol

PKB HM-P (peptide modelled on the phosphorylated hydrophobic motif of PKBβ, residues 460-481)
estimated EC50 of activation of kinase activity [6]: 2300 µM
fold lower affinity than PIFtide, from the estimated EC50 of activation [6]: 1000 fold
stimulation of PKB kinase activity towards Crosstide [6]: 4 fold

GLLELDQRTHFPQFDYSASIRE [PKB HM-D (PKB hydrophobic motif peptide with aspartate at position 474)]
estimated EC50 of activation of kinase activity [9]: 3600 µM
fold lower affinity than PIFtide, from the estimated EC50 of activation [9]: 1000 fold
stimulation of PKB kinase activity towards Crosstide [9]: 3 fold

Reference: patent publication US20040009569A1, “Kinase crystal structures and materials and methods for kinase activation” (priority 2001, published 2004)
